# Data published in patent US10413564B2, “Compositions and methods for combating drug-resistant cancers” (NATIONAL YANG-MING UNIVERSITY, priority 2016, dated 2019).
# Entries after “also recorded” stand apart in the source; their conditions may differ. Like-named read-outs stand apart in the source and are kept apart here.
# Assays:
# [1] = test system: OECM1-Ctx^R or primary HNSCC cells; assay: Sensitization to cetuximab treatment by pathway inhibitors
# Description: (§2) A total of 5×10^4 cells per well were seeded in a 96-well plate with triplicate and incubated for 24 h and then treated with different concentrations of indicated drugs. After 24 h treatment, the medium was removed. The MTT assay solution was added to each well, and the plate was incubated for 1 h at 37° C. After incubation, the solution was carefully discarded and dimethyl sulphoxide was added to dissolve newly formed mitochondrial MTT crystals. Finally, the plate was read using a microplate reader at 540 nm. Based on the data of cell viability assay, IC50-value calculation was performed by Sigmaplot 10.0 (Systat Software Inc., San Jose, Calif.).
# OECM1-Ctx^R cells [2] = assay: Growth inhibition of the cetuximab-resistant subline OECM1-Ctx^R; assay type: cell-based, human
# Description: as §2
# FaDu-Ctx^R cells = assay: Growth inhibition of the cetuximab-resistant subline FaDu-Ctx^R; assay type: cell-based, human
# Description: A cetuximab-resistant HNSCC subline (named FaDu-Ctx^R) was established by in vivo selection. 1×10^5 wild-type FaDu cells per mouse were inoculated into the subcutaneous area of Balb/c nude mice (n=4). Two mice were treated with PBS and two were treated with cetuxmab once a week. […] After 10 weeks, the xenograpfted tumor was harvested for primary culture. […] The resistance of FaDu-Cxt^R was confirmed in vivo and in vitro. Subsequently, these two sublines were inoculated into nude mice again and treated with cetuximab.
# After 24 h treatment, the medium was removed.
# NF-κB = NF-κB luciferase reporter assay; assay type: cell-based, human; details: cetuximab-resistant cells
# From the text: Activation of NF-κB in cetuximab-resistant cells was evident by an increased expression of nuclear p65 and p52 proteins and an enhanced NF-κB activity. Knockdown of LTB reduced nuclear p65 and p52, and suppression of LTB by either shRNA or a LTβ neutralizing antibody reduced NF-κB reporter activity.
# The reporter constructs (PGL4.2-LTB-WT/PGL4.2-LTB-MUT/pGL4.23 promoter) were co-transfected into HEK-293T, FaDu or OECM1/OECM1-Ctx^R cells with different expression/control vector(s) as indicated in each experiment. A plasmid expressing the bacterial β-galactosidase gene (pCMV-βgal) was co-transfected in each experiment as an internal control for transfection efficiency. Cells were harvested after 48 hours of transfection and luciferase activities were assayed. The relative promoter activities were expressed as the fold-change in luciferase activity after normalization to β-galactosidase activity.
# EGFR-ECD = EGFR-ECD (Homo sapiens, UniProt P00533); assay: Peptide in vitro binding assay with EGFR-ECD; details: in vitro binding assay of peptides P1-P10
# Description: The purified full-length EGFR and EGFR-ECD was incubated with peptides containing sequences of different β-sheets of LTβ.
# P1-P10 (SEQ ID NOs: 2-10) were tested for in vitro binding assay.
# EGFR-ICD = EGFR-ICD (Homo sapiens, UniProt P00533); assay: In vitro binding assay, EGFR-ICD and LTβ interaction; details: LTβ β-sheet peptides
# From the text: (§1) Since LTβ also induces EGFR-ICD phosphorylation in vitro, the applicant also investigated whether interception of EGFR-ICD and LTβ interaction could attenuate EGFR phosphorylation.
# EGF-EGFR binding = biological target: T1, EGF-EGFR binding (Homo sapiens, UniProt P00533); assay: EGF binding (flow cytometry); assay type: cell-based; details: OECM1-Ctx^R
# T1 construct: examined the effect of treating the peptides containing different β-sheets of LTβ on OECM1-Ctx^R; endogenous in cells; host or cells: OECM1-CtxR (cetuximab-resistant subline of OECM1); parental OECM1 for comparison
# Description: To analyze EGF binding, the cells were resuspended, incubated in a PE-conjugated anti-EGF antibody and evaluated using a Cytomics FC 500 instrument (Beckman-Coulter Inc., Fullerton, Calif.). The EGF-bound populations were defined compared with the IgG control group.
# OECM1-Ctx^R cells [3] = assay: Clonogenecity assay, sensitization of OECM1-Ctx^R to cetuximab by peptides; assay type: cell-based, human; details: OECM1-Ctx^R / cetuximab-resistant cells
# Description: The colonies were stained with crystal violet and counted if the size was great than 0.5 mm.
# 5,000 cells/well were seeded into 24-well plates. After 10 days of culturing, cells were washed by cold PBS twice and fixed by 4% paraformaldehyde for 1 hour. Cells then were stained by 0.005% crystal violet at 4° C. overnight. Colonies with a diameter larger than 0.5 mm were counted.
# EGFR [4] = biological target: T2, EGFR (Homo sapiens, UniProt P00533); assay: In vitro kinase assay of EGFR phosphorylation; assay type: biochemical; design: Since LTβ also induces EGFR-ICD phosphorylation in vitro
# From the text: as §1
# EGFR [5] = biological target: T2, EGFR; assay: EGFR Y1068 phosphorylation in OECM1-Ctx^R treated with LTβ β-sheet peptides; assay type: cell-based; design: examined the effect of treating the peptides containing different β-sheets of LTβ on OECM1-Ctx^R; endogenous in cells; host or cells: OECM1-CtxR (cetuximab-resistant subline of OECM1); parental OECM1 for comparison
# EGFR [6] = biological target: T2, EGFR; assay: EGFR dimerization in OECM1-Ctx^R; assay type: cell-based; design: examined the effect of treating the peptides containing different β-sheets of LTβ on OECM1-Ctx^R; endogenous in cells; host or cells: OECM1-CtxR (cetuximab-resistant subline of OECM1); parental OECM1 for comparison
# [7] = test system: colorectal tumors harboring a KRAS mutation; details: patients, FDA approval background; cited from earlier work
compound,measurement,setting,value
CC(C)C[C@H](NC(=O)[C@H](Cc1ccccc1)NC(=O)c1cnccn1)B(O)O [bortezomib],sensitization to cetuximab treatment by inhibition of NF-κB activity,[1],sensitized
CCGGCGAGAGGGTGTACGTCAACATCTCGAGATGTTGACGTACACCCTCTCGTTTTT G (CCGGCGAGAGGGTGTACGTCAACATCTCGAGATGTTGACGTACACCCTCTCGTTTTTG; expressed or natural sequence) [shRNA],cetuximab resistance after knockdown of LTβ,OECM1-Ctx^R cells [2],reverses cetuximab resistance
same,cetuximab resistance after knockdown of LTβ,FaDu-Ctx^R cells,reverses cetuximab resistance
same,NF-κB reporter activity,NF-κB,reduced
ERVYVNISH (beta-sheet of LTbeta) [P9],interaction with EGFR-ECD,EGFR-ECD,interact
same,interaction in the in vitro binding assay (EGFR-ICD context),EGFR-ICD,interacted with LTβ
same,EGF-EGFR binding,EGF-EGFR binding,reduced
same,sensitization to cetuximab treatment by peptide,OECM1-Ctx^R cells [3]; listed as 9th β-sheet,capable for sensitizing; also recorded: sensitized
same,"EGFR phosphorylation, in vitro kinase assay",EGFR [4],suppresses EGFR phosphorylation most significantly
same,EGFR Y1068 phosphorylation,EGFR [5]; listed as 9th β-sheet,suppressed; also recorded: more prominent effect
same,EGFR dimerization,EGFR [6],inhibits
QDGLYYLYCLVGYR (beta-sheet of LTbeta) [P5],interaction with EGFR-ECD,EGFR-ECD,interact
same,interaction in the in vitro binding assay (EGFR-ICD context),EGFR-ICD,interacted with LTβ
same,sensitization to cetuximab treatment by peptide,OECM1-Ctx^R cells [3]; listed as 5th β-sheet,capable for sensitizing; also recorded: sensitized
same,"EGFR phosphorylation, in vitro kinase assay",EGFR [4],suppresses EGFR phosphorylation most significantly
same,EGFR Y1068 phosphorylation,EGFR [5],suppressed
WYTSVGFGGLVQLR (beta-sheet of LTbeta) [P8],interaction with EGFR-ECD,EGFR-ECD,interact
same,interaction in the in vitro binding assay (EGFR-ICD context),EGFR-ICD,interacted with LTβ
panitumumab,effect in colorectal tumors harboring a KRAS mutation,[7],little or no effect
